# T1: APBA1_2, Q02410
# T1 sequence (Q02410 742-832, limits assumed, looked up): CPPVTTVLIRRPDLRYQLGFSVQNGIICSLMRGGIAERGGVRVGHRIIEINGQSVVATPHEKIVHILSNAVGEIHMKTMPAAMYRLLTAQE
# T2: DLG3_3, Q92796
# T2 sequence (Q92796 374-475, limits assumed, looked up): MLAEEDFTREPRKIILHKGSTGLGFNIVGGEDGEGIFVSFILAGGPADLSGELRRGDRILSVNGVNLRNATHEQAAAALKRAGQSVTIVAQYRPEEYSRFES
# T3: NHERF3_1, Q5T2W1
# T3 sequence (Q5T2W1 4-100, limits assumed, looked up): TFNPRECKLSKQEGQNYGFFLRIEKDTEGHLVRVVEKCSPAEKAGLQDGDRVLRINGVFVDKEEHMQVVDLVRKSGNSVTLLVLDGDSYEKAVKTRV
# T4: GRIP1_3, Q9Y3R0
# T4 sequence (Q9Y3R0 247-346, limits assumed, looked up): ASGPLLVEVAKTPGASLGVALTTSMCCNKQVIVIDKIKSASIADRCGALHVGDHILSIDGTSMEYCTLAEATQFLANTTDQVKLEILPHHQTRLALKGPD
# T5: RHPN1, Q8TCX5
# T5 sequence (Q8TCX5 508-602, limits assumed, looked up): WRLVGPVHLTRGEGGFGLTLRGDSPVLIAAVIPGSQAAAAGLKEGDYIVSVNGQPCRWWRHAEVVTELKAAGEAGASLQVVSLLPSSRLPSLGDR
# T6: APBA1_1, Q02410
# T6 sequence (Q02410 651-752, limits assumed, looked up): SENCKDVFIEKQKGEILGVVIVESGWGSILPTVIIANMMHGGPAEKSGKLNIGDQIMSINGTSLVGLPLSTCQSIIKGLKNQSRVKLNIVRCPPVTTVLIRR
# T7: LNX2_2, Q8N448
# T7 sequence (Q8N448 334-432, limits assumed, looked up): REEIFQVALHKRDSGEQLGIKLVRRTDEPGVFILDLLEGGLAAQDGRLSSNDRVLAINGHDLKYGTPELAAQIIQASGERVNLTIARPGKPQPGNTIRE
# T8: TIAM2, Q8IVF5
# T8 sequence (Q8IVF5 885-986, limits assumed, looked up): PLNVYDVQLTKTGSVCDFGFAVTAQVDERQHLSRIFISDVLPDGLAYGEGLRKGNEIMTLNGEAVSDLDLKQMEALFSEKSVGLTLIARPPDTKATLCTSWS
# T9: MPP2, Q14168
# T9 sequence (Q14168 180-250, limits assumed, looked up): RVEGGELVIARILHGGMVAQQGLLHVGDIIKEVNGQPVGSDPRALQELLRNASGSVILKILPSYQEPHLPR
# T10: SYNJ2BP, P57105
# T10 sequence (P57105 8-110, limits assumed, looked up): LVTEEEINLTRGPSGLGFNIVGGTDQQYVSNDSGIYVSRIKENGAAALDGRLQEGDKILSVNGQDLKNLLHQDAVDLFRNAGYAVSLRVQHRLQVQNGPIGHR
# T11: DLG3_1, Q92796
# T11 sequence (Q92796 125-227, limits assumed, looked up): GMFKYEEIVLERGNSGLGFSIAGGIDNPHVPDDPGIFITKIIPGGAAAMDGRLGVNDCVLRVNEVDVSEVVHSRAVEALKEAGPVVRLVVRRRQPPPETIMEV
# T12: GRIP1_5, Q9Y3R0
# T12 sequence (Q9Y3R0 568-668, limits assumed, looked up): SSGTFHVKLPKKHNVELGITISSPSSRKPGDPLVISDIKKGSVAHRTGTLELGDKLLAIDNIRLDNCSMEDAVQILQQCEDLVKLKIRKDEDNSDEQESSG
# B1: CES3, Q6UWW8 (peptide)
# chain: QKNRKAQEDL
# B2: TANC1, Q9C0D5 (peptide)
# chain: PKRSFIESNV
# B3: ZNF831, Q5JPB2 (peptide)
# chain: DDEDRLVIEI
# B4: EPHB3, P54753 (peptide)
# chain: QMNQTLPVQV
# Target: SNX27, Q96L92
# Test: holdup assay
# Parameters: key: below the threshold = too weak to quantify, mostly under pKd 3.1 to 4
# Details: plain residues with an end cap or a label only (N-terminal biotin on a linker: ado-ado)
row,Binder,pKd
1,B1,below the threshold
2,B2,5.51
3,B3,below the threshold
4,B4,3.86

# Target: T1, APBA1_2, Q02410
# Test: holdup assay
# Parameters: key: below the threshold = too weak to quantify, mostly under pKd 3.1 to 4
# Details: plain residues with an end cap or a label only (N-terminal biotin on a linker: ado-ado)
row,Binder,pKd
1,B1,below the threshold
2,B2,3.68
3,B3,below the threshold
4,B4,4.8

# Target: Inadl_8, Q8NI35
# Test: holdup assay
# Parameters: key: below the threshold = too weak to quantify, mostly under pKd 3.1 to 4
# Details: plain residues with an end cap or a label only (N-terminal biotin on a linker: ado-ado)
# Chain of Inadl_8, Q8NI35 (Q8NI35 1425-1530): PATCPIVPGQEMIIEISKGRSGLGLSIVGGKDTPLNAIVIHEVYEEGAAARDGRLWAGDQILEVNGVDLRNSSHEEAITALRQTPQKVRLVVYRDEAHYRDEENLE
row,Binder,pKd
1,B1,below the threshold
2,B2,4.15
3,B3,below the threshold
4,B4,3.55

# Target: FRMPD2_3, Q68DX3
# Test: holdup assay
# Parameters: key: below the threshold = too weak to quantify, mostly under pKd 3.1 to 4
# Details: plain residues with an end cap or a label only (N-terminal biotin on a linker: ado-ado)
# Chain of FRMPD2_3, Q68DX3 (Q68DX3 1073-1166): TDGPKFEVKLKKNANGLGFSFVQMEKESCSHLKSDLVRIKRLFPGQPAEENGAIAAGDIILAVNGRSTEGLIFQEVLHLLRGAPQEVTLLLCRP
row,Binder,pKd
1,B1,below the threshold
2,B2,below the threshold
3,B3,below the threshold
4,B4,below the threshold

# Target: T2, DLG3_3, Q92796
# Test: holdup assay
# Parameters: key: below the threshold = too weak to quantify, mostly under pKd 3.1 to 4
# Details: plain residues with an end cap or a label only (N-terminal biotin on a linker: ado-ado)
row,Binder,pKd
1,B1,below the threshold
2,B2,4.23
3,B3,below the threshold
4,B4,3.56

# Target: GRID2IP_2, A4D2P6
# Test: holdup assay
# Parameters: key: below the threshold = too weak to quantify, mostly under pKd 3.1 to 4
# Details: plain residues with an end cap or a label only (N-terminal biotin on a linker: ado-ado)
# Chain of GRID2IP_2, A4D2P6 (A4D2P6 272-370): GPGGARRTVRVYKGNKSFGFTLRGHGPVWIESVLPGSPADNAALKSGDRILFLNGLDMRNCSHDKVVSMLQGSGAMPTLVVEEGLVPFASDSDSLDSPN
row,Binder,pKd
1,B1,below the threshold
2,B2,3.53
3,B3,below the threshold
4,B4,3.58

# Target: T3, NHERF3_1, Q5T2W1
# Test: holdup assay
# Parameters: key: below the threshold = too weak to quantify, mostly under pKd 3.1 to 4
# Details: plain residues with an end cap or a label only (N-terminal biotin on a linker: ado-ado)
row,Binder,pKd
1,B1,below the threshold
2,B2,4.3
3,B3,below the threshold
4,B4,3.48

# Target: PDLIM1, O00151
# Test: holdup assay
# Parameters: key: below the threshold = too weak to quantify, mostly under pKd 3.1 to 4
# Details: plain residues with an end cap or a label only (N-terminal biotin on a linker: ado-ado)
# Chain of PDLIM1, O00151 (O00151 1-87): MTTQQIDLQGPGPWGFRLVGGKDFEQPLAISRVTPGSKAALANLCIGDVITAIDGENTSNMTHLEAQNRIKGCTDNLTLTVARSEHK
row,Binder,pKd
1,B1,below the threshold
2,B2,below the threshold
3,B3,below the threshold
4,B4,below the threshold

# Target: NOS1, P29475
# Test: holdup assay
# Parameters: key: below the threshold = too weak to quantify, mostly under pKd 3.1 to 4
# Details: plain residues with an end cap or a label only (N-terminal biotin on a linker: ado-ado)
# Chain of NOS1, P29475 (P29475 9-101): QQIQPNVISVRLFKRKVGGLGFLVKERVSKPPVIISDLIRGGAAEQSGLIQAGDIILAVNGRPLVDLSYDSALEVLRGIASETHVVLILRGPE
row,Binder,pKd
1,B1,below the threshold
2,B2,below the threshold
3,B3,3.64
4,B4,4.18

# Target: T4, GRIP1_3, Q9Y3R0
# Test: holdup assay
# Parameters: key: below the threshold = too weak to quantify, mostly under pKd 3.1 to 4
# Details: plain residues with an end cap or a label only (N-terminal biotin on a linker: ado-ado)
row,Binder,pKd
1,B1,below the threshold
2,B2,below the threshold
3,B3,below the threshold
4,B4,below the threshold

# Target: IL16_3, Q14005
# Test: holdup assay
# Parameters: key: below the threshold = too weak to quantify, mostly under pKd 3.1 to 4
# Details: plain residues with an end cap or a label only (N-terminal biotin on a linker: ado-ado)
# Chain of IL16_3, Q14005 (Q14005 1107-1207): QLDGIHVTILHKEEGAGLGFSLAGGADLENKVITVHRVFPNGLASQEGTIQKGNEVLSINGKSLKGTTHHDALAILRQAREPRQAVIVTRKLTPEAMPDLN
row,Binder,pKd
1,B1,below the threshold
2,B2,below the threshold
3,B3,below the threshold
4,B4,below the threshold

# Target: T5, RHPN1, Q8TCX5
# Test: holdup assay
# Parameters: key: below the threshold = too weak to quantify, mostly under pKd 3.1 to 4
# Details: plain residues with an end cap or a label only (N-terminal biotin on a linker: ado-ado)
row,Binder,pKd
1,B1,below the threshold
2,B2,4.38
3,B3,3.53
4,B4,below the threshold

# Target: T6, APBA1_1, Q02410
# Test: holdup assay
# Parameters: key: below the threshold = too weak to quantify, mostly under pKd 3.1 to 4
# Details: plain residues with an end cap or a label only (N-terminal biotin on a linker: ado-ado)
row,Binder,pKd
1,B1,below the threshold
2,B2,below the threshold
3,B3,below the threshold
4,B4,below the threshold

# Target: T7, LNX2_2, Q8N448
# Test: holdup assay
# Parameters: key: below the threshold = too weak to quantify, mostly under pKd 3.1 to 4
# Details: plain residues with an end cap or a label only (N-terminal biotin on a linker: ado-ado)
row,Binder,pKd
1,B1,below the threshold
2,B2,below the threshold
3,B3,4.76
4,B4,5.12

# Target: MAGI1_1, Q96QZ7
# Test: holdup assay
# Parameters: key: below the threshold = too weak to quantify, mostly under pKd 3.1 to 4
# Details: plain residues with an end cap or a label only (N-terminal biotin on a linker: ado-ado)
# Chain of MAGI1_1, Q96QZ7 (Q96QZ7 1-106): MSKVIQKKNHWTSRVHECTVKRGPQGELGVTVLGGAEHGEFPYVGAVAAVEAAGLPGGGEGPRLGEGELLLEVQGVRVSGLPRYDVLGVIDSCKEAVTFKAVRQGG
row,Binder,pKd
1,B1,below the threshold
2,B2,below the threshold
3,B3,below the threshold
4,B4,below the threshold

# Target: HTRA1, Q92743
# Test: holdup assay
# Parameters: key: below the threshold = too weak to quantify, mostly under pKd 3.1 to 4
# Details: plain residues with an end cap or a label only (N-terminal biotin on a linker: ado-ado)
# Chain of HTRA1, Q92743 (Q92743 360-477): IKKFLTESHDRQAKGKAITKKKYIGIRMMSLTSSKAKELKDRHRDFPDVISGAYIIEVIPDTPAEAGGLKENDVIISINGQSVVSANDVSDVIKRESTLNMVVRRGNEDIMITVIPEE
row,Binder,pKd
1,B1,below the threshold
2,B2,below the threshold
3,B3,5.7
4,B4,4.11

# Target: AHNAK1, Q09666
# Test: holdup assay
# Parameters: key: below the threshold = too weak to quantify, mostly under pKd 3.1 to 4
# Details: plain residues with an end cap or a label only (N-terminal biotin on a linker: ado-ado)
# Chain of AHNAK1, Q09666 (Q09666 4-100): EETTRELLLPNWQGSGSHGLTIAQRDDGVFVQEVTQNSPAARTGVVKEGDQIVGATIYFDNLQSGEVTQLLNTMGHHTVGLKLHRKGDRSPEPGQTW
row,Binder,pKd
1,B1,below the threshold
2,B2,below the threshold
3,B3,below the threshold
4,B4,below the threshold

# Target: GRIP2_5, Q9C0E4
# Test: holdup assay
# Parameters: key: below the threshold = too weak to quantify, mostly under pKd 3.1 to 4
# Details: plain residues with an end cap or a label only (N-terminal biotin on a linker: ado-ado)
# Chain of GRIP2_5, Q9C0E4 (Q9C0E4 544-642): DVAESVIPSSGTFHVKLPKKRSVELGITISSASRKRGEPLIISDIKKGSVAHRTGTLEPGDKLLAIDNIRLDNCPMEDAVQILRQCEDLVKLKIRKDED
row,Binder,pKd
1,B1,below the threshold
2,B2,below the threshold
3,B3,below the threshold
4,B4,below the threshold

# Target: T8, TIAM2, Q8IVF5
# Test: holdup assay
# Parameters: key: below the threshold = too weak to quantify, mostly under pKd 3.1 to 4
# Details: plain residues with an end cap or a label only (N-terminal biotin on a linker: ado-ado)
row,Binder,pKd
1,B1,4.08
2,B2,below the threshold
3,B3,3.9
4,B4,below the threshold

# Target: PICK1, Q9NRD5
# Test: holdup assay
# Parameters: key: below the threshold = too weak to quantify, mostly under pKd 3.1 to 4
# Details: plain residues with an end cap or a label only (N-terminal biotin on a linker: ado-ado)
# Chain of PICK1, Q9NRD5 (Q9NRD5 17-115): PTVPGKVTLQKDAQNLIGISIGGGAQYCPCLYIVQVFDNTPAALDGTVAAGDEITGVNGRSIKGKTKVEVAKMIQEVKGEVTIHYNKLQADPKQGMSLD
row,Binder,pKd
1,B1,4
2,B2,4.14
3,B3,below the threshold
4,B4,4.35

# Target: GRIP2_4, Q9C0E4
# Test: holdup assay
# Parameters: key: below the threshold = too weak to quantify, mostly under pKd 3.1 to 4
# Details: plain residues with an end cap or a label only (N-terminal biotin on a linker: ado-ado)
# Chain of GRIP2_4, Q9C0E4 (Q9C0E4 446-548): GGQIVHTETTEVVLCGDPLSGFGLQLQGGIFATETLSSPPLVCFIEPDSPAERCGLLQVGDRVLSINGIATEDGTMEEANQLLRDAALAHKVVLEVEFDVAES
row,Binder,pKd
1,B1,below the threshold
2,B2,below the threshold
3,B3,below the threshold
4,B4,below the threshold

# Target: T9, MPP2, Q14168
# Test: holdup assay
# Parameters: key: below the threshold = too weak to quantify, mostly under pKd 3.1 to 4
# Details: plain residues with an end cap or a label only (N-terminal biotin on a linker: ado-ado)
row,Binder,pKd
1,B1,below the threshold
2,B2,below the threshold
3,B3,below the threshold
4,B4,below the threshold

# Target: T10, SYNJ2BP, P57105
# Test: holdup assay
# Parameters: key: below the threshold = too weak to quantify, mostly under pKd 3.1 to 4
# Details: plain residues with an end cap or a label only (N-terminal biotin on a linker: ado-ado)
row,Binder,pKd
1,B1,below the threshold
2,B2,5.28
3,B3,below the threshold
4,B4,below the threshold

# Target: T11, DLG3_1, Q92796
# Test: holdup assay
# Parameters: key: below the threshold = too weak to quantify, mostly under pKd 3.1 to 4
# Details: plain residues with an end cap or a label only (N-terminal biotin on a linker: ado-ado)
row,Binder,pKd
1,B1,below the threshold
2,B2,4.15
3,B3,below the threshold
4,B4,below the threshold

# Target: T12, GRIP1_5, Q9Y3R0
# Test: holdup assay
# Parameters: key: below the threshold = too weak to quantify, mostly under pKd 3.1 to 4
# Details: plain residues with an end cap or a label only (N-terminal biotin on a linker: ado-ado)
row,Binder,pKd
1,B1,below the threshold
2,B2,below the threshold
3,B3,below the threshold
4,B4,below the threshold

# Target: DLG4_1, P78352
# Test: holdup assay
# Parameters: key: below the threshold = too weak to quantify, mostly under pKd 3.1 to 4
# Details: plain residues with an end cap or a label only (N-terminal biotin on a linker: ado-ado)
# Chain of DLG4_1, P78352 (P78352 62-152): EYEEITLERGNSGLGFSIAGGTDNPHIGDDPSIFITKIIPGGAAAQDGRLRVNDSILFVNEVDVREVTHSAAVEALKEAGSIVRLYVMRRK
row,Binder,pKd
1,B1,below the threshold
2,B2,4.73
3,B3,below the threshold
4,B4,below the threshold

# From article PMC9482650, “Quantitative fragmentomics allow affinity mapping of interactomes” (Nature Communications, 2022)
